Here are results for three molecules from patent US20220251221A1 (AGENCY FOR SCIENCE TECHNOLOGY AND RESEARCH, published 2022).

One assay deals with T1, recombinant γc-Fc (Homo sapiens (Human), UniProt P31785 23-262).
T1 construct: also called CD132-Fc; not shown: Fc part of the fusion not described
T1 sequence: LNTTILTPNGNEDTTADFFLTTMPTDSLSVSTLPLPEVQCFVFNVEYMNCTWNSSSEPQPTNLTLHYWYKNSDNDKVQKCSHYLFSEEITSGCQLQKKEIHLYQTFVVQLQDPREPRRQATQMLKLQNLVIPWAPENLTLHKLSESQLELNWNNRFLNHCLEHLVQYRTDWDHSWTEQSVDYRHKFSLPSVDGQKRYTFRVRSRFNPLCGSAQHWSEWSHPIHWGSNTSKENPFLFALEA
Briefly: ELISA on coated γc-Fc ('Binding to IL-2RG (Fc)'), biotinylated antibody, streptavidin-HRP, the axis is [Ab]/nM. How it is done: (§1) Binding of P2C4/P1A3 to IL-2Rβ or γc was measured by ELISA analysis, using recombinant IL-2Rβ-Fc and γc-Fc coated on maxisorp plates.
(§2) Biotinylated P2C4/P1A3 was added at various concentrations. Detection of binding was performed using a colorimetric assay using HRP-conjugated streptavidin which converts TMB substrate to a blue solution. The reaction was stopped using hydrochloric acid, and absorbance was measured at 450 nm and 670 nm.

The next assay has as its target T2, recombinant IL-2Rβ-Fc (Homo sapiens (Human), UniProt P14784 27-240).
T2 construct: also called CD122-Fc; not shown: Fc part of the fusion not described
T2 sequence: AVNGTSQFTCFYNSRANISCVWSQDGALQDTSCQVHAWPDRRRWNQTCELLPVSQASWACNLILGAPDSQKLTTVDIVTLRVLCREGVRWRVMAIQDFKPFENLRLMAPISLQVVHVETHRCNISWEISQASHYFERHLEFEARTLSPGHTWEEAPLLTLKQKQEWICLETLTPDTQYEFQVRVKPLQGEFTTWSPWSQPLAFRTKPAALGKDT
The experiment in a line: ELISA on coated IL-2Rβ-Fc ('Binding to IL-2RB (Fc)'), biotinylated antibody, streptavidin-HRP, the axis is [Ab]/nM. Here is the method: as §1, §2
(In an ELISA, binding on a coated surface is turned into a signal by an enzyme label.)

For a further assay, the target named is T3, monomeric γc (Homo sapiens (Human), UniProt P31785 23-262, limits assumed).
T3 construct: Neither the limits nor the species of the construct are stated; also called CD132; common γ chain
T3 sequence: T1 sequence
The experiment in a line: BLI, antibody captured on anti-human Fc biosensor tips, monomeric γc in solution, 1:1 Langmuir fit. Here is the method:
(§3) The affinity of binding of P2C4/P1A3 and P2C4/P1A10 to IL-2Rβ and γc was measured by Bio-Layer Interferometry (BLI).
(§4) P2C4/P1A3 or P2C4/P1A10 were captured on anti-human Fc biosensor tips, and 5 different concentrations of monomeric IL-2Rβ or γc were allowed to bind to the captured antibodies. Dissociation of the antigen from the immobilised antibodies was performed for 5 min. Binding affinity was calculated by fitting binding curves using the 1:1 Langmuir model.
(In general: Biolayer interferometry detects binding as a change in optical thickness at a sensor tip.)

A further assay deals with T4, monomeric IL-2Rβ (Homo sapiens (Human), UniProt P14784 27-240, limits assumed).
T4 construct: Neither the limits nor the species of the construct are stated; also called CD122
T4 sequence: T2 sequence
Briefly: BLI, antibody captured on anti-human Fc biosensor tips, monomeric IL-2Rβ in solution, 1:1 Langmuir fit. How it is done:
as §3, §4

B1: P2C4/P1A3 Crossmab (bispecific antibody, V domains shown)
VH 1: EVQLVQSGAEVKKPGSSVKVSCKASGYTFTNYYMHWVRQAPGQGLEWMGAIMPSRGGTSYPQKFQGRVTMTGDTSTSTVYMELSSLRSEDTAVYYCARGEYYYDSSGYYYWGQGTLVTVSS
VL 1: QSALTQPASVSGSPGQSIAISCTGTSSDIGHYDFVSWYQQHPGTAPKLIIYDINNRPSGISNRFSGSKSDNMASLTISGLQPEDEADYYCSAYTSSDTLVFGGGTKLTVL
VH 2: QVQLQQWGAGLLKPSETLSLTCAVYGGSFSGYYWSWIRQPPGKGLEWIGEINHSGSTNYNPSLKSRATISVDTSKNQFSLKLSSVTAADTAVYYCATSPGGYSGGYFQHWGQGTLVTVSS
VL 2: not shown
modifications: Biotinylated for the ELISA; site not given.
notes: also called Fab (P2C4): Fab (P1A3) in CrossMab format; copies: 1 + 1 + 1 + 1
In the case of B1, the results for the EC50 in the assay with recombinant γc-Fc and in the assay with recombinant IL-2Rβ-Fc were 21.2 nM and 0.772 nM, respectively.

B2: P2C4/P1A10 bispecific anti-IL-2Rβ/γc antibody, scFv-KiH-Fc format (bispecific antibody)
chain 1: not shown
chain 2: QVQLQQSGAEVKKPGSSVKVSCKASGGTFSSYAISWVRQAPGQGLEWMGGFDPEDGETIYAQKFQGRVTMTEDTSTDTAYMELSSLRSEDTAVYYCATDLRIPYYYDNPWGQGTLVTVSSGGGGSGGGGSGGGGSEIVLTQSPLSLPVTPGEPASISCRSSQSLLHSNGYNYLNWYLQKPGQSPQLLIYLGSDRASGVPDRFSGSGSGTDFTLKISRVEAEDVGVYYCMQALQTPTTFGGGTKVEIKNSGAGTAAATHTCPPCPAPEAAGGPSVFLFPPKPKDTLMISRTPEVTCVVVDVSHEDPEVKFNWYVDGVEVHNAKTKPREEQYNSTYRVVSVLTVLHQDWLNGKEYKCKVSNKALPAPIEKTISKAKGQPREPQVCTLPPSRDELTKNQVSLSCAVKGFYPSDIAVEWESNGQPENNYKTTPPVLDSDGSFFLVSKLTVDKSRWQQGNVFSCSVMHEALHNHYTQKSLSLSPGK
In the assay with monomeric γc, B2 registered a dissociation constant Kd of 61.8 nM, a koff of 0.00961 s⁻¹ and a kon of 156000 M⁻¹ s⁻¹. In the assay with monomeric IL-2Rβ, this molecule gave a Kd of 28.2 nM, a koff of 0.0044 s⁻¹ and a kon of 156000 M⁻¹ s⁻¹.

B3: P2C4_FW2/P1A3_FW2 (bispecific antibody)
chain 1: not shown
chain 2: EVQLVESGGGLVQPGGSLRLSCAASGGSFSGYYWSWVRQAPGKGLEWVSEINHSGSTNYNPSLKSRFTISRDNSKNTLYLQMNSLRAEDTAVYYCARSPGGYSGGYFQHWGQGTLVTVSSGGGGSGGGGSGGGGSDIQMTQSPSSLSASVGDRVTITCRSSQSLLHSNGYNYLDWYQQKPGKAPKLLIYLGSNRDSGVPSRFSGSGSGTDFTLTISSLQPEDFATYYCMQGTHWPWTFGQGTKVEIKNSGAGTAAATHTCPPCPAPEAAGGPSVFLFPPKPKDTLMISRTPEVTCVVVDVSHEDPEVKFNWYVDGVEVHNAKTKPREEQYNSTYRVVSVLTVLHQDWLNGKEYKCKVSNKALPAPIEKTISKAKGQPREPQVCTLPPSRDELTKNQVSLSCAVKGFYPSDIAVEWESNGQPENNYKTTPPVLDSDGSFFLVSKLTVDKSRWQQGNVFSCSVMHEALHNHYTQKSLSLSPGK
modifications: Biotinylated for the ELISA; site not given.
notes: also called scFv (P2C4_FW2): scFv (P1A3_FW2)-KiH-Fc
B3: the EC50 with recombinant γc-Fc is 48.8 nM; with recombinant IL-2Rβ-Fc, 1.92 nM.

A word on the EC50: it is the concentration that produces a half-maximal response. For orientation: Kd means a measure of binding affinity in units of concentration. Read a low Kd as higher affinity. As a reminder, the koff is the rate constant with which the complex falls apart. A higher koff goes with fast dissociation. By kon is commonly meant a measure of how fast the partners come together.
